From US20220002432A1 (VIRTUOSO BINCO, published 2022)

Columns and labels:
cynomolgus CD38 ECD [1] = target: T1, cynomolgus CD38 ECD (cynomolgus, UniProt Q5VAN0 44-301, biotinylated on the AviTag during preparation); assay: SPR (Biacore 8K), antibody captured, antigen injected;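 further: antibodies held on a CM5 chip through anti-human IgG Fc, antigen in 3-fold serial dilutions, 1 min association then 10 min dissociation at 25 °C, 1:1 Langmuir global fit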
T1 construct: also called Cyno-CD38; Avi-Cyno CD38 ECD
Procedure: (§1) The binding kinetics of the anti-CD38 and anti-ICAM1 antibodies were evaluated on a Biacore 8K instrument (GE Healthcare). Biacore Series S CM5 sensor chips were immobilized with monoclonal mouse anti-human IgG (Fc) antibody (human antibody capture kit from GE Healthcare). Antibodies were captured on each flow cell. Serial 3-fold dilutions of each antigen were injected at a flow rate of 30 μl/min. Each sample was analyzed with 1 min association and 10 min dissociation at room temperature (25° C.). After each injection, the chip was regenerated using 3M MgCl₂. A 1:1 Langmuir model of simultaneous fitting of kₒₙ and koff was used for kinetics analysis.

recombinant human CD38 [2] = target: T2, recombinant human CD38 (human, UniProt P28907 43-300, limits assumed); assay: as above
Procedure: as §1

cynomolgus CD38 ECD [3] = target: T1, cynomolgus CD38 ECD; assay: ELISA: plate coated with 1 ug/ml recombinant cynomolgus CD38 ECD, serially diluted antibody, OD450
Procedure: (§2) The plate was coated overnight at 4° C. with 1 μg/ml recombinant CD38 or ICAM1. After washing 3 times, the plate was blocked with 300 μl 1% BSA in PBST at 37° C. for 1 hour. Serially diluted antibodies were added and incubated at 37° C. for 1 hour. The plate was then washed 4 times with PBST and incubated with 1:5000 diluted 2nd antibody (Sigma, Cat #A0293) at 37° C. for 1 hour.

recombinant human CD38 [4] = target: T2, recombinant human CD38; assay: ELISA: plate coated with 1 ug/ml recombinant human CD38 ECD, serially diluted antibody, OD450
Procedure: as §2

[5] = target: T3, CD38 on the surface of Daudi cells (human, UniProt P28907 1-300); assay: flow cytometry, Daudi cells;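 further: purified antibodies incubated with Daudi cells for 1 h at 4 °C, bound antibody detected by fluorescent secondary antibody and read by flow cytometry as MFI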
T3 construct: whole, on cells
Procedure: Harvested cells were centrifuged at 2000 rpm for 5 min and resuspended with 10-15 ml ice-cold culture medium. Cells were counted and then 3×10⁶ cells were resuspended per mL of blocking buffer (PBS plus 2% FBS). 100 μl of the cell suspension was dispensed into each well of a 96-well plate and incubated at room temperature for 10-20 min. […] While incubating, purified antibodies were diluted to the desired dilution with blocking buffer. After a 10-20 minutes incubation, cells were centrifuged for 5 min at 2000 rmp in a refrigerated centrifuge. Blocking buffer was aspirated, and cells were resuspended in 100 μl/well diluted antibodies and incubated for 1 hour at 4° C. The cells were then washed 3 times with PBS plus 2% FBS. After the final wash, the cells were resuspended in 100 μl 1:500 diluted secondary antibody (Invitrogen, Cat #: A10631) and incubated for 1 hour at 4° C. in the dark. The cells were then washed 3 times with 200 μl PBS by centrifuging at 2000 rpm for 5 min. After the last wash, the cells were resuspended in 300 μl cold PBS and analyzed on a FACSVerse™ (BD Biosciences) flow cytometer.

Binder	Kd (cynomolgus CD38 ECD [1]) [pM]	koff (cynomolgus CD38 ECD [1]) [s⁻¹]	kon (cynomolgus CD38 ECD [1]) [M⁻¹ s⁻¹]	Kd (recombinant human CD38 [2]) [pM]	koff (recombinant human CD38 [2]) [s⁻¹]	kon (recombinant human CD38 [2]) [M⁻¹ s⁻¹]	EC50 (read off the curve) (cynomolgus CD38 ECD [3]) [pM]	EC50 (read off the curve) (recombinant human CD38 [4]) [pM]	EC50 [5] [pM]	Max Binding MFI [5] [MFI]
25E4 (antibody, human IgG1, kappa, V domains shown, Rabbit-human chimeric anti-CD38: rabbit VH and VL on human IgG1 and kappa constant regions) VH: QSLEESGGRLVTPGTPLTLTCTVSGIDLSIYTMAWVRQAPGKGLEYIGIISGYGTTYYATWAKGRFIVSKTSTTVDLKITSPTTEDTATYFCVRTTVQSTDLWGPGTLVTVSS VL: DIVMTQTPASVEAAVGGTVTINCQASQNIYSNLAWYQQKPGQRPKLLIYKASTLASGVSSRFKGSGSGTEFTLTISDLASADAATYYCQSYYGATSSSFGYGFGGGTEVVVKR	140	0.000175	1.23e+06	70	2.59e-05	380000	~60	~60	503	859
21G2 (antibody, human IgG1, kappa, V domains shown, Rabbit-human chimeric anti-CD38: rabbit VH and VL on human IgG1 and kappa constant regions) VH: QSVEESGGRLVTPGTPLTLTCTVSGFSLSNYGVSWVRQAPGKGLEWIGYILTSGGTYYANWAQGRFTISKTSTTVDLKITSPTTEDTATYFCGRPKDSDSSAFVSLWGPGTLVTVSS VL: DVVMTQTPASVSEPVGGTVTINCQASESIYSNLAWYQQKPGQPPKLLIYKASTLASGVSSRFKGSGSGTEFTLTISDLESADAATYYCQANHMIVIYGNGFGGGTEVVVKR	1710	0.000432	253000	190	3.1e-05	167000	~60	~60	1130	2150
23D1 (antibody, human IgG1, kappa, V domains shown, Rabbit-human chimeric anti-CD38: rabbit VH and VL on human IgG1 and kappa constant regions) VH: QELVESGGGLFQPGGSLALTCKASGFSLSNIYVMCWVRQAPGKGLEWIACIGTGSGDTDYATWAKGRFTISKTSSTTVTLQMTSLTAADTATYFCARDPGAGTWNLWGPGTLVTVSS VL: DIVMTQTPSSVEAAVGGTVTIKCQASQTIGSRLAWYQQKPGQPPKLLIYSASTLASGVSSRFKGSGSGTQFTLTISDLDSADAATYYCQSYYYTSTSYPNAFGGGTEVVVKR	550	0.000294	536000	670	0.000125	187000	~60	~60	704	1000
20B5 (antibody, human IgG1, kappa, V domains shown, Rabbit-human chimeric anti-CD38: rabbit VH and VL on human IgG1 and kappa constant regions) VH: QSLEESGGDLVKPGASLTLTCTASGFSFSSRYWICWVRQAPGKGLEWIACIVAGTTNTYYASWAKGRFTISKTSSTTVTLQMTSLTAADTATYFCAGDPRTGSNVGYFNLWGPGTLVTVSS VL: AQVLTQTPSPVSAAVGGTVTINCQASQSVYNNNYLAWFQQKPGQPPKLLIYSASTLASGVPSRFKGSGSGTQFTLTISEVQSDDAATYYCQAYYSGGIYAFGGGTEVVVKR	54800	0.0322	588000	98600	0.0341	346000	~60		373	816
26D4 (antibody, human IgG1, kappa, V domains shown, Rabbit-human chimeric anti-CD38: rabbit VH and VL on human IgG1 and kappa constant regions) VH: QEQLEESGGDLVKPEGSLTLTCTASGFSFSNDAICWVRQAPGKGLEWIACIYAGSGNTYYASWAKGRFSISKTSSTTVTLQMTSLTVADTATYFCASADTIDYFNLWGPGTLVTVSS VL: AQVLTQTPSPVSAAVGGTVTINCQASQSVYNNNYLAWYQQKPGQPPKLLIYRASNLASGVPSRFSASGSGTQFTLTISEVQSDDAATYYCQAYYRDPTTAFGGGTEVVVKR	43800	0.0313	715000	510000	0.102	200000	~60		4060	577
23B3 (antibody, human IgG1, kappa, V domains shown, Rabbit-human chimeric anti-CD38: rabbit VH and VL on human IgG1 and kappa constant regions) VH: QSVEESGGRLVTPGTPLTLTCTVSGFSLSNYDMTWVRQAPGRGLEWIGVISSGDNTNYARWAKGRFTISKTSSTTVDLKITSPTTEDTATYFCARILYNKGRYYFTFWGPGTLVTVSS VL: AQVLTQTPSSVSAAVGGTVTINCQSSQSIANSDELAWYQQKPGQPPKLLIYDASTLAPGVPSRFSGSGSGTQFTLTISGVQSDDAATYYCQGTVYDSGWYAAFGGGTEVVVKR	40	9.46e-05	2.43e+06	0.029	2.77e-08	970000	~60	~60	325	1330
25F12 (antibody, human IgG1, kappa, V domains shown, Rabbit-human chimeric anti-CD38: rabbit VH and VL on human IgG1 and kappa constant regions) VH: RSLEESGGRLVTPGTPLTLTCTTSGFSLSSYDMSWVRQAPGKGLEWIGYITYGGNIYYATWAKGRFTTSKTSTTVDLKITSPTTEDTATYFCARTLYTGGRYYFSLWGPGTLVTVSS VL: AQVLTQTPSSVSAVVGGTVTINCQSSQSIANSNEVAWYQQKLGQPPKLLIYDASTLASGVPSRFSGSGSGTQFTLIISGVQSDDAATYYCQGTVYDNVWYAAFGGGTEVVVKR	180	0.000185	1.04e+06	10	2.24e-05	1.84e+06	~60	~60	263	1030
22H6 (antibody, human IgG1, kappa, V domains shown, Rabbit-human chimeric anti-CD38: rabbit VH and VL on human IgG1 and kappa constant regions) VH: QSVEESGGRLVTPGTPLTLTCTVSGFSLSNNAISWVRQAPGKGLQWIGSIYGSGNTYYATWAKGRFTVSKTSTTVDLKINSPTTEDTATYFCAREGAGSSWGFNLWGPGTLVTVSS VL: AQVLTQTASSVSAAVGGTVTISCQSSESVYKNNYLSWYQQKPGQPLKCLIYSASTLASGVPSRFKGSGSGTQFTLTISDLESDDAATYYCAGGYSGNINGFGGGTEVVVKR	62400	0.0352	564000	65400	0.021	321000	~60		1320	782
21H9 (antibody, human IgG1, kappa, V domains shown, Rabbit-human chimeric anti-CD38: rabbit VH and VL on human IgG1 and kappa constant regions) VH: QSLEESGGDLVKPGASLTLTCTASGFSATTYYYYMCWVRQAPGKGLEWIACTYTGDGATYYATWAKGRFTISKTSSTTVTLQMTSLTAADTATYFCARSADNSIYYGYFNLWGPGTLVTVSS VL: AFELTQTPFSVSEPVGGTVTINCQASENIYSSLAWYQQKPGQPPKLLIYRASTLASGVPSRFSGSGSGTEFTLTISGVQSDDAATYYCQTYYGSTSTGFTFGGGTEVVVKR	760	0.00014	184000	4	5.99e-07	166000	~60	~60	1200	1930
25C3 (antibody, human IgG1, kappa, V domains shown, Rabbit-human chimeric anti-CD38: rabbit VH and VL on human IgG1 and kappa constant regions) VH: QEQLEESGGDLVKPGASLTLTCKASGFSFSSAYDMCWVRQAPGKGLEWVACLYTVSSDSIYYASWAKGRFTISRTSSTTVTLQMTSLTAADTATYFCARDGDYFALWGPGTLVTVSS VL: DIVMTHTPASVEAAVGGTVTIKCQASQNIGGYLSWYQQKPGQRPKLLIYRASTLASGVPSRFKGSGSGTQFTLTISDLESADAATYYCQTYYYSGSSRYWAFGGGTEVVVKR	150	0.000187	1.23e+06	30	3.48e-05	1.15e+06	~60	~60	347	1180
1E2 (antibody, human IgG1, kappa, V domains shown, Rabbit-human chimeric anti-CD38: rabbit VH and VL on human IgG1 and kappa constant regions) VH: QSVEESGGRLVTPGTPLTLTCTVSGIDLNSYAMGWVRQAPGKGLKYIGIMTSGGNIYYANWAKGRFTISKTSTTVDLRITSPTTEDTATYFCAREREFYGGGTSGSRLDLWGQGTLVTVSS VL: AYDMTQTPASVEAAVGGTVTIKCQASQSIYNFLNWYQQKPGQPPKLLIYYASTLAFGVPSRFKGSGSGTEYTLTISGVESADAATYYCQQGWNSGILDNSFGGGTEVVVKR	68100	0.0124	182000	1620	0.000388	240000	~60	~60	497	2130
